Data from article PMC4507770.

Biological target: GST–XJTGB3 fusion protein (BSMV Xinjiang strain TGB3) (barley stripe mosaic virus, Xinjiang strain)
Test: pull-down

## XJTGB1_(T395A/T401A) double mutant, C-terminal His-tagged (natural protein)
  TGB3 protein-binding efficiency compared with wt XJTGB1: 40%
  percent less effective binding than wt XJTGB1: 40 % less
